{
  "source": "paper PMC11326354",
  "about": "“Mechanism of human α3β GlyR modulation in inflammatory pain and 2, 6-DTBP interaction” (Research Square, 2024)",
  "key": {"[1]": {"molecular_target": "the molecule itself", "assay": "cryo-EM structure; heteromeric GlyR in 0.06% digitonin, 20 mM Tris-HCl pH 8.0, 200 mM NaCl, 2 mM glycine"}, "[2]": {"molecular_target": "human glycine receptor β subunit, βem construct (human)", "sequence (P48167 whole entry)": "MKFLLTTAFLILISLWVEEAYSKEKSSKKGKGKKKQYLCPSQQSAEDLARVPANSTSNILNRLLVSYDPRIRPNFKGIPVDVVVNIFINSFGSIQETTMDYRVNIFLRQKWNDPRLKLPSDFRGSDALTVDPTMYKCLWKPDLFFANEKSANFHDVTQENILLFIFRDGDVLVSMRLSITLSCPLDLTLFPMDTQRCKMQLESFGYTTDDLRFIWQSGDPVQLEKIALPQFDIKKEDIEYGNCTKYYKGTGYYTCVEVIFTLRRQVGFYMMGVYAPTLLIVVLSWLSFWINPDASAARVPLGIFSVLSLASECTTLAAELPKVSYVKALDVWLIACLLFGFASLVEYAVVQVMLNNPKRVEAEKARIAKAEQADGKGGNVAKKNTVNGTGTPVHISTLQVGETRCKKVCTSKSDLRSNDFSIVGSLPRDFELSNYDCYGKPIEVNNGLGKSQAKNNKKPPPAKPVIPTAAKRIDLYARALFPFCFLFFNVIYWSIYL", "assay": "cryo-EM structure; heteromeric GlyR in 0.06% digitonin, 20 mM Tris-HCl pH 8.0, 200 mM NaCl, 2 mM glycine"}, "[3]": {"molecular_target": "human glycine receptor β subunit, βem construct (human)", "assay": "cryo-EM structure; heteromeric GlyR reconstituted in saposin nanodisc with brain polar lipids extract, 20 mM Tris-HCl pH 8.0, 200 mM NaCl, 2 mM glycine"}, "[4]": {"molecular_target": "the molecule itself", "assay": "FRET or BRET; TIRF-based single-molecule FRET between LD555 and LD655 at C358 of different α3 subunits; labelled GlyR (0.7 nM) held on NeutrAvidin/biotin anti-GFP antibody-coated glass by the GFP in β; 50 mM HEPES-NaOH pH 7.4, 150 mM NaCl, 10 mM MgCl2, 22 °C; apo, with 2 mM glycine, with 2 mM glycine and 500 μM 2, 6-DTBP"}, "[5]": {"molecular_target": "human glycine receptor β subunit, βem construct (human)", "assay": "cryo-EM structure; heteromeric GlyR in 0.06% digitonin, 2 mM glycine, with 500 μM 2, 6-DTBP throughout the purification and another 500 μM added before grid freezing"}},
  "data": [
    {"binder": "human glycine receptor α3 subunit, α3em construct (receptor, UniProt O75311-1 34-464, looked up, glycine receptor α3 subunit, human, NCBI NP_006520.2; 9 residues of the M3/M4 loop (A329-S337) deleted; the model description counts 422 aa in all, from A1 to D431; Four copies of this subunit stand with one β subunit in the pentamer; also called GlyR α3) ARSRSAPMSPSDFLDKLMGRTSGYDARIRPNFKGPPVNVTCNIFINSFGSIAETTMDYRVNIFLRQKWNDPRLAYSEYPDDSLDLDPSMLDSIWKPDLFFANEKGANFHEVTTDNKLLRIFKNGNVLYSIRLTLTLSCPMDLKNFPMDVQTCIMQLESFGYTMNDLIFEWQDEAPVQVAEGLTLPQFLLKEEKDLRYCTKHYNTGKFTCIEVRFHLERQMGYYLIQMYIPSLLIVILSWVSFWINMDAAPARVALGITTVLTMTTQSSGSRASLPKVSYVKAIDIWMAVCLLFVFSALLEYAAVNFVSRQHKELLRFRRKRKNKTEAFDMDDEVRESRFSFTAYGMGPCLQAKDGMTPKGPNHPVQVMPKSPDEMRKVFIDRAKKIDTISRACFPLAFLIFNIFYWVIYKILRHEDIHQQQD", "values": [
      {"measurement": "binding result", "setting": "[1]", "value": "binds"},
      {"measurement": "stoichiometry N", "setting": "[2]", "value": "4 α3 per β"},
      {"measurement": "stoichiometry N", "setting": "[3]", "value": "4 α3 per β"}
    ]},
    {"binder": "human glycine receptor α3 subunit, α3_(FRET) construct (receptor, UniProt O75311-1 34-464, looked up, cysteine-reactive dye (LD555-MAL or LD655-MAL) at C358, glycine receptor α3 subunit, human, NCBI NP_006520.2; α3em (A329-S337 deleted) with C41V and an A1 tag inserted between S380 and P381; Stood in the smFRET assay as part of the α3_(FRET)β_(FRET) pentamer, which was held on the glass by the GFP in β_(FRET) (βem with C115S); also called α_(FRET)) ARSRSAPMSPSDFLDKLMGRTSGYDARIRPNFKGPPVNVTVNIFINSFGSIAETTMDYRVNIFLRQKWNDPRLAYSEYPDDSLDLDPSMLDSIWKPDLFFANEKGANFHEVTTDNKLLRIFKNGNVLYSIRLTLTLSCPMDLKNFPMDVQTCIMQLESFGYTMNDLIFEWQDEAPVQVAEGLTLPQFLLKEEKDLRYCTKHYNTGKFTCIEVRFHLERQMGYYLIQMYIPSLLIVILSWVSFWINMDAAPARVALGITTVLTMTTQSSGSRASLPKVSYVKAIDIWMAVCLLFVFSALLEYAAVNFVSRQHKELLRFRRKRKNKTEAFDMDDEVRESRFSFTAYGMGPCLQAKDGMTPKGPNHPVQVMPKSPDEMRKVFIDRAKKIDTISRACFPLAFLIFNIFYWVIYKILRHEDIHQQQD", "values": [
      {"measurement": "binding result", "setting": "[4]", "value": "binds"}
    ]},
    {"binder": "human glycine receptor α3 subunit, α3S346E_(FRET) construct (receptor, UniProt O75311-1 34-464, looked up, cysteine-reactive dye (LD555-MAL or LD655-MAL) at C358, glycine receptor α3 subunit, human, NCBI NP_006520.2; α3S346Eem (A329-S337 deleted, S346E) with C41V and an A1 tag inserted between S380 and P381; Stood in the smFRET assay as part of the α3_(FRET)S346Eβ_(FRET) pentamer, which was held on the glass by the GFP in β_(FRET) (βem with C115S); also called α3_(FRET)S346E) ARSRSAPMSPSDFLDKLMGRTSGYDARIRPNFKGPPVNVTVNIFINSFGSIAETTMDYRVNIFLRQKWNDPRLAYSEYPDDSLDLDPSMLDSIWKPDLFFANEKGANFHEVTTDNKLLRIFKNGNVLYSIRLTLTLSCPMDLKNFPMDVQTCIMQLESFGYTMNDLIFEWQDEAPVQVAEGLTLPQFLLKEEKDLRYCTKHYNTGKFTCIEVRFHLERQMGYYLIQMYIPSLLIVILSWVSFWINMDAAPARVALGITTVLTMTTQSSGSRASLPKVSYVKAIDIWMAVCLLFVFSALLEYAAVNFVSRQHKELLRFRRKRKNKTEAFDMDDEVREERFSFTAYGMGPCLQAKDGMTPKGPNHPVQVMPKSPDEMRKVFIDRAKKIDTISRACFPLAFLIFNIFYWVIYKILRHEDIHQQQD", "values": [
      {"measurement": "binding result", "setting": "[4]", "value": "binds"}
    ]},
    {"binder": "human glycine receptor α3 subunit, α3S346Eem construct (phosphorylation mimic) (receptor, UniProt O75311-1 34-464, looked up, glycine receptor α3 subunit, human, NCBI NP_006520.2; α3em (A329-S337 deleted) with S346E; the model description counts 422 aa in all, from A1 to D431; Four copies of this subunit stand with one β subunit in the pentamer; also called α3emS346E) ARSRSAPMSPSDFLDKLMGRTSGYDARIRPNFKGPPVNVTCNIFINSFGSIAETTMDYRVNIFLRQKWNDPRLAYSEYPDDSLDLDPSMLDSIWKPDLFFANEKGANFHEVTTDNKLLRIFKNGNVLYSIRLTLTLSCPMDLKNFPMDVQTCIMQLESFGYTMNDLIFEWQDEAPVQVAEGLTLPQFLLKEEKDLRYCTKHYNTGKFTCIEVRFHLERQMGYYLIQMYIPSLLIVILSWVSFWINMDAAPARVALGITTVLTMTTQSSGSRASLPKVSYVKAIDIWMAVCLLFVFSALLEYAAVNFVSRQHKELLRFRRKRKNKTEAFDMDDEVREERFSFTAYGMGPCLQAKDGMTPKGPNHPVQVMPKSPDEMRKVFIDRAKKIDTISRACFPLAFLIFNIFYWVIYKILRHEDIHQQQD", "values": [
      {"measurement": "binding result", "setting": "[1]", "value": "binds"},
      {"measurement": "stoichiometry N", "setting": "[2]", "value": "4 α3 per β"},
      {"measurement": "stoichiometry N", "setting": "[5]", "value": "4 α3 per β"}
    ]}
  ]
}
